Biological target: the molecule itself
Experiment: SEC-MALS

Protein | stoichiometry N
MBP-AA-SAS5-NTD (SAS-5 residues 1–260 fused to MBP with a two-alanine linker) (domain or fragment, C. elegans, UniProt Q20010 1-260, looked up) MNNYDDLPCSIYFKKPTVQEFVDQPRVFEDSEVPAFQEVLQLPQERTKPPVPSTQPIVAAVEVAKKKSCLSAPKPRKEPPSHPALRQKTVAFGKTVNVSQTVEGTSRNSKKVLASTMSAQNTTTTEEQAAENWRDAMKTELQTIRTEIQEETARRQEELNAQNLVKMQELMSNFFQKITIPKQQAIEPVEKDKENFHESPRQSRQQKPASKIASAREVIKRDGVIPPEALTIIEQRLRSDPMFRQQIDNVLADAECDANR | 4
MBP-AA-SAS-5 aa82-260 (domain or fragment, C. elegans, UniProt Q20010 82-260, looked up) HPALRQKTVAFGKTVNVSQTVEGTSRNSKKVLASTMSAQNTTTTEEQAAENWRDAMKTELQTIRTEIQEETARRQEELNAQNLVKMQELMSNFFQKITIPKQQAIEPVEKDKENFHESPRQSRQQKPASKIASAREVIKRDGVIPPEALTIIEQRLRSDPMFRQQIDNVLADAECDANR | 4
